This is an account of results in PMC7467569, “The Progesterone 5β-Reductase/Iridoid Synthase Family: A Catalytic Reservoir for Specialized Metabolism across Land Plants” (ACS Chemical Biology, 2020).

Common to all, as to assay: purified protein
In data set [1] the test system is CC(=O)[C@H]1CC[C@H]2[C@@H]3CCC4=CC(=O)CC[C@]4(C)[C@H]3CC[C@]12C. It counts as biochemical, Digitalis lanata. As to conditions: 250 μM NADPH, 50 mM HEPES/NaOH pH 7.0, 100 mM NaCl, 25 °C, 1.5% ethanol.
Data set [2] shares this test system. The data set is classed as biochemical, Digitalis purpurea. As to conditions: 250 μM NADPH, 50 mM HEPES/NaOH pH 7.0, 100 mM NaCl, 25 °C, 1.5% ethanol.
The next data set relates to C/C(C=O)=C\CC/C(C)=C/C=O. As to conditions: 250 μM NADPH, 50 mM HEPES/NaOH pH 7.0, 100 mM NaCl, 25 °C, 0.1% tetrahydrofuran.
Data set [3] deals with CC(=O)[C@H]1CC[C@H]2[C@@H]3CCC4=CC(=O)CC[C@]4(C)[C@H]3CC[C@]12C. As to conditions: 250 μM NADPH, 50 mM HEPES/NaOH pH 7.0, 100 mM NaCl, 25 °C, 1.5% ethanol.

Take “Digitalis lanata 1 (PRISE1, progesterone 5β-reductase) (Digitalis lanata)”: the Km – broadly, the substrate concentration at which the rate is half of its maximum – in data set [1] was found to be 6.5 ± 2.0 µM.
As to “Digitalis purpurea 2 (Digitalis purpurea)”, in data set [2], the Km was 6.3 ± 1.9 µM.
Turning to “Physcomitrella patens PRISE (Physcomitrium patens)”, in the data set on C/C(C=O)=C\CC/C(C)=C/C=O, the Km came to 31.3 ± 8.6 µM; the kcat – broadly, the maximal rate divided by the concentration of active sites – came to 0.066 ± 0.005 s⁻¹; the kcat/Km – broadly, the turnover number divided by the Michaelis constant – turned out to be 2100 M⁻¹ s⁻¹. Further, the Km in data set [3] is 9.5 ± 3.1 µM.
